From the supplement of paper PMC9112550, “Optimization of the antimicrobial peptide Bac7 by deep mutational scanning” (BMC Biology, 2022) come the findings set out here.

The test system of the data set is Escherichia coli TOP10. The experiment in a line: shrunken log2 fold change of peptide-encoding DNA abundance (4.5 h post-induction vs induction); higher = less antimicrobial activity (less host growth inhibition). Particulars: time post-induction: 4.5 h; library: site-saturation at positions 5, 18, 19, 20.
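Further: peptides expressed intracellularly from a pBAD plasmid library in pooled LB shake-flask culture, induced with 0.3% L-arabinose, DNA abundance read by NGS, three biological replicates, DESeq2 with apeglm shrinkage.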

As to RRIRCRPPRLPRPRPRPPRPPRP, the “shrunken log2 fold change” value is 0.957.

As to RRIRFRPPRLPRPRPRPRYTPRP, the “shrunken log2 fold change” value is -0.15.

As for RRIRRRPPRLPRPRPRPGDIPRP, the “shrunken log2 fold change” value was 0.0886.

Turning to RRIRMRPPRLPRPRPRPHRNPRP, the “shrunken log2 fold change” value is -0.181.

On to RRIRWRPPRLPRPRPRPAPIPRP, for which the “shrunken log2 fold change” value came out at 0.319.

Consider RRIRFRPPRLPRPRPRPKGHPRP, for which the “shrunken log2 fold change” value is 0.0587.

Take RRIRRRPPRLPRPRPRPAIVPRP: the “shrunken log2 fold change” value stood at 0.275.

In the case of RRIRGRPPRLPRPRPRPCLVPRP, the “shrunken log2 fold change” value was found to be 0.761.

As to RRIRLRPPRLPRPRPRPKKMPRP, the “shrunken log2 fold change” value came out at 0.126.

For the sequence RRIRNRPPRLPRPRPRPRMVPRP, the “shrunken log2 fold change” value was -0.289.

With RRIRDRPPRLPRPRPRPPFGPRP, the “shrunken log2 fold change” value is 0.225.

For the sequence RRIRYRPPRLPRPRPRPMFTPRP, the “shrunken log2 fold change” value is -0.629.

For RRIRQRPPRLPRPRPRPLCFPRP, the “shrunken log2 fold change” value is -0.302.

With RRIRMRPPRLPRPRPRPDALPRP, the “shrunken log2 fold change” value is 0.438.

Turning to RRIRDRPPRLPRPRPRPRKAPRP, the “shrunken log2 fold change” value is -0.0143.

With RRIRGRPPRLPRPRPRPIQNPRP, the “shrunken log2 fold change” value amounted to 0.0261.

For the sequence RRIRHRPPRLPRPRPRPEIEPRP, the “shrunken log2 fold change” value is -0.0966.

As for RRIRSRPPRLPRPRPRPSYEPRP, the “shrunken log2 fold change” value is -0.426.

For RRIRVRPPRLPRPRPRPRFCPRP, the “shrunken log2 fold change” value is -0.0488.

Regarding RRIRMRPPRLPRPRPRPEGEPRP, the “shrunken log2 fold change” value came out at 0.123.

As for RRIRWRPPRLPRPRPRPYKNPRP, the “shrunken log2 fold change” value was -0.61.

With RRIRSRPPRLPRPRPRPNNLPRP, the “shrunken log2 fold change” value was -1.04.

On to RRIRVRPPRLPRPRPRPSDYPRP, for which the “shrunken log2 fold change” value is -0.673.

For the sequence RRIRCRPPRLPRPRPRPPYEPRP, the “shrunken log2 fold change” value was -0.306.

In the case of RRIRCRPPRLPRPRPRPRLEPRP, the “shrunken log2 fold change” value amounted to 0.299.

As to RRIRYRPPRLPRPRPRPMHRPRP, the “shrunken log2 fold change” value was -0.0541.

For RRIRYRPPRLPRPRPRPCCMPRP, the “shrunken log2 fold change” value is -0.356.

With RRIRARPPRLPRPRPRPIAKPRP, the “shrunken log2 fold change” value stood at 0.217.

On to RRIRNRPPRLPRPRPRPNRIPRP, for which the “shrunken log2 fold change” value is -0.233.

In the case of RRIRDRPPRLPRPRPRPICTPRP, the “shrunken log2 fold change” value was found to be 0.198.

As to RRIRIRPPRLPRPRPRPKAHPRP, the “shrunken log2 fold change” value was -0.242.

In the case of RRIRPRPPRLPRPRPRPMNHPRP, the “shrunken log2 fold change” value is -0.11.

With RRIRARPPRLPRPRPRPQSYPRP, the “shrunken log2 fold change” value is -0.118.

For the sequence RRIRLRPPRLPRPRPRPDEHPRP, the “shrunken log2 fold change” value is -0.287.

On to RRIRTRPPRLPRPRPRPSMSPRP, for which the “shrunken log2 fold change” value was -0.655.

For RRIRSRPPRLPRPRPRPVVGPRP, the “shrunken log2 fold change” value worked out at 0.267.

Regarding RRIRFRPPRLPRPRPRPQIFPRP, the “shrunken log2 fold change” value was -0.172.

Turning to RRIRSRPPRLPRPRPRPCHVPRP, the “shrunken log2 fold change” value was -0.0349.

For RRIRQRPPRLPRPRPRPMFDPRP, the “shrunken log2 fold change” value was -0.109.

As to RRIRLRPPRLPRPRPRPRTGPRP, the “shrunken log2 fold change” value is 0.321.

Regarding RRIRLRPPRLPRPRPRPNKPPRP, the “shrunken log2 fold change” value is -0.0372.

Take RRIRPRPPRLPRPRPRPLPCPRP: the “shrunken log2 fold change” value was -0.407.

Regarding RRIRHRPPRLPRPRPRPVVVPRP, the “shrunken log2 fold change” value is -0.149.

In the case of RRIRQRPPRLPRPRPRPTMIPRP, the “shrunken log2 fold change” value was found to be 0.151.

With RRIRDRPPRLPRPRPRPADMPRP, the “shrunken log2 fold change” value is -0.119.

As for RRIRYRPPRLPRPRPRPNIYPRP, the “shrunken log2 fold change” value was -0.68.

Take RRIRRRPPRLPRPRPRPETEPRP: the “shrunken log2 fold change” value was found to be 0.783.

Take RRIRVRPPRLPRPRPRPFDSPRP: the “shrunken log2 fold change” value was -0.204.

Turning to RRIRCRPPRLPRPRPRPTTHPRP, the “shrunken log2 fold change” value is -0.0573.

Regarding RRIRMRPPRLPRPRPRPKTHPRP, the “shrunken log2 fold change” value is 0.612.

Consider RRIRYRPPRLPRPRPRPTPYPRP, for which the “shrunken log2 fold change” value is -0.847.

As for RRIRSRPPRLPRPRPRPQEIPRP, the “shrunken log2 fold change” value is -0.16.

As to RRIRCRPPRLPRPRPRPYFFPRP, the “shrunken log2 fold change” value is -0.614.

RRIRIRPPRLPRPRPRPENLPRP: the “shrunken log2 fold change” value was -0.0595.

For RRIRSRPPRLPRPRPRPQLQPRP, the “shrunken log2 fold change” value amounted to 0.104.

Regarding RRIRTRPPRLPRPRPRPWWSPRP, the “shrunken log2 fold change” value was -0.143.

Regarding RRIRVRPPRLPRPRPRPQFYPRP, the “shrunken log2 fold change” value was -0.806.

With RRIRMRPPRLPRPRPRPTKGPRP, the “shrunken log2 fold change” value stood at 0.258.

Regarding RRIRPRPPRLPRPRPRPWELPRP, the “shrunken log2 fold change” value stood at 0.0728.

Consider RRIRIRPPRLPRPRPRPDTFPRP, for which the “shrunken log2 fold change” value was -0.364.

As to RRIRLRPPRLPRPRPRPGNWPRP, the “shrunken log2 fold change” value came out at 0.0269.

For the sequence RRIRFRPPRLPRPRPRPAFNPRP, the “shrunken log2 fold change” value is -0.367.

On to RRIRWRPPRLPRPRPRPMQIPRP, for which the “shrunken log2 fold change” value is 0.0922.

With RRIRYRPPRLPRPRPRPMNEPRP, the “shrunken log2 fold change” value is -0.103.

RRIRCRPPRLPRPRPRPTQKPRP: the “shrunken log2 fold change” value is 0.0827.

In the case of RRIRMRPPRLPRPRPRPINKPRP, the “shrunken log2 fold change” value was -0.375.

Regarding RRIRFRPPRLPRPRPRPGPKPRP, the “shrunken log2 fold change” value came out at 0.066.

On to RRIRNRPPRLPRPRPRPQQFPRP, for which the “shrunken log2 fold change” value was -0.0018.

Regarding RRIRRRPPRLPRPRPRPETIPRP, the “shrunken log2 fold change” value was found to be 0.175.

As for RRIRDRPPRLPRPRPRPAYLPRP, the “shrunken log2 fold change” value is -0.011.

As to RRIRGRPPRLPRPRPRPGNEPRP, the “shrunken log2 fold change” value was 0.0696.

RRIRWRPPRLPRPRPRPYDFPRP: the “shrunken log2 fold change” value is -0.181.

With RRIRVRPPRLPRPRPRPNWIPRP, the “shrunken log2 fold change” value was -0.29.

In the case of RRIRQRPPRLPRPRPRPCNSPRP, the “shrunken log2 fold change” value is -0.0261.

Turning to RRIRQRPPRLPRPRPRPPIFPRP, the “shrunken log2 fold change” value amounted to 0.163.

With RRIRLRPPRLPRPRPRPSETPRP, the “shrunken log2 fold change” value is -0.0373.

As to RRIRCRPPRLPRPRPRPWHQPRP, the “shrunken log2 fold change” value is -0.0304.

For the sequence RRIRARPPRLPRPRPRPSWEPRP, the “shrunken log2 fold change” value was 0.162.

For RRIRQRPPRLPRPRPRPDPWPRP, the “shrunken log2 fold change” value worked out at 0.161.

With RRIRLRPPRLPRPRPRPHYEPRP, the “shrunken log2 fold change” value was -0.762.

As to RRIRGRPPRLPRPRPRPKPWPRP, the “shrunken log2 fold change” value was 0.914.

On to RRIRQRPPRLPRPRPRPQYYPRP, for which the “shrunken log2 fold change” value is -0.243.

As to RRIRYRPPRLPRPRPRPGEMPRP, the “shrunken log2 fold change” value was -0.0218.

As to RRIRIRPPRLPRPRPRPSISPRP, the “shrunken log2 fold change” value was -0.046.

Take RRIRHRPPRLPRPRPRPAFTPRP: the “shrunken log2 fold change” value was -0.311.

RRIRKRPPRLPRPRPRPWHVPRP: the “shrunken log2 fold change” value is -1.06.

Regarding RRIRMRPPRLPRPRPRPRLPPRP, the “shrunken log2 fold change” value stood at 0.805.

On to RRIRTRPPRLPRPRPRPFRQPRP, for which the “shrunken log2 fold change” value stood at 0.0156.

As to RRIRFRPPRLPRPRPRPMQTPRP, the “shrunken log2 fold change” value is -0.101.

Regarding RRIRCRPPRLPRPRPRPKILPRP, the “shrunken log2 fold change” value was -0.0835.

Turning to RRIRVRPPRLPRPRPRPPVPPRP, the “shrunken log2 fold change” value amounted to 0.35.

Take RRIRGRPPRLPRPRPRPMAAPRP: the “shrunken log2 fold change” value amounted to 1.4.

Consider RRIRWRPPRLPRPRPRPAIEPRP, for which the “shrunken log2 fold change” value is -0.04.

RRIRLRPPRLPRPRPRPIVIPRP: the “shrunken log2 fold change” value was -1.37.

As for RRIRDRPPRLPRPRPRPLWNPRP, the “shrunken log2 fold change” value is 0.0619.

Consider RRIRLRPPRLPRPRPRPTAFPRP, for which the “shrunken log2 fold change” value came out at 0.0454.

For the sequence RRIRERPPRLPRPRPRPMTFPRP, the “shrunken log2 fold change” value is -0.081.

With RRIRGRPPRLPRPRPRPARRPRP, the “shrunken log2 fold change” value stood at 0.739.

Turning to RRIRVRPPRLPRPRPRPGYAPRP, the “shrunken log2 fold change” value stood at 0.0532.

Regarding RRIRWRPPRLPRPRPRPMREPRP, the “shrunken log2 fold change” value was found to be 1.09.

For RRIRTRPPRLPRPRPRPQGYPRP, the “shrunken log2 fold change” value is -0.943.

With RRIRSRPPRLPRPRPRPSFMPRP, the “shrunken log2 fold change” value is -0.335.

As for RRIRMRPPRLPRPRPRPKHIPRP, the “shrunken log2 fold change” value was -0.0498.

As for RRIRERPPRLPRPRPRPVMMPRP, the “shrunken log2 fold change” value is -0.144.

Take RRIRTRPPRLPRPRPRPDFCPRP: the “shrunken log2 fold change” value was -0.311.

Turning to RRIRPRPPRLPRPRPRPDWVPRP, the “shrunken log2 fold change” value was 0.0636.

RRIRERPPRLPRPRPRPANEPRP: the “shrunken log2 fold change” value is -0.916.

Regarding RRIRWRPPRLPRPRPRPAIIPRP, the “shrunken log2 fold change” value is -0.296.

In the case of RRIRFRPPRLPRPRPRPYKVPRP, the “shrunken log2 fold change” value is -0.614.

RRIRPRPPRLPRPRPRPNFKPRP: the “shrunken log2 fold change” value is -0.225.

Turning to RRIRTRPPRLPRPRPRPSKAPRP, the “shrunken log2 fold change” value was -0.0453.

As to RRIRKRPPRLPRPRPRPPRTPRP, the “shrunken log2 fold change” value was 0.829.

RRIRKRPPRLPRPRPRPDSSPRP: the “shrunken log2 fold change” value was found to be 0.0149.

Take RRIRSRPPRLPRPRPRPVRCPRP: the “shrunken log2 fold change” value is 0.221.

As to RRIRQRPPRLPRPRPRPTRDPRP, the “shrunken log2 fold change” value was -0.271.

Regarding RRIRYRPPRLPRPRPRPVQMPRP, the “shrunken log2 fold change” value was -0.0524.

Take RRIRTRPPRLPRPRPRPLCFPRP: the “shrunken log2 fold change” value was -0.326.

As for RRIRQRPPRLPRPRPRPCVWPRP, the “shrunken log2 fold change” value was 0.213.

In the case of RRIRWRPPRLPRPRPRPLGVPRP, the “shrunken log2 fold change” value turned out to be 0.459.

Regarding RRIRGRPPRLPRPRPRPLEWPRP, the “shrunken log2 fold change” value turned out to be 1.03.

In the case of RRIRHRPPRLPRPRPRPLVVPRP, the “shrunken log2 fold change” value is -0.0489.

As to RRIRRRPPRLPRPRPRPQDHPRP, the “shrunken log2 fold change” value was -0.0159.

Consider RRIRGRPPRLPRPRPRPSTPPRP, for which the “shrunken log2 fold change” value worked out at 0.468.

With RRIRPRPPRLPRPRPRPRHWPRP, the “shrunken log2 fold change” value was 0.423.

For RRIRFRPPRLPRPRPRPQWPPRP, the “shrunken log2 fold change” value amounted to 0.192.
